We go through six substances from patent US11236354B2, “Glyphosate-n-acetyltransferase (GLYAT) sequences and methods of use” (PIONEER HI-BRED INTERNATIONAL, INC., priority 2013, dated 2022).

In one data set the test system is N[C@@H](CC(=O)O)C(=O)O. The data set is described as follows: cells, lysate or membranes named. The conditions noted are these: 37.0 °C.
For the next data set, the system named is O=C(O)CNCP(=O)(O)O. The data set is described as follows: cells, lysate or membranes named. Particulars: 37.0 °C.
Where [1] appears, read: other: SEQ ID NO:5, pH 7.0, non-varied substrate saturating.
The mark [2] stands for this setting: other: SEQ ID NO:8, pH 7.0, non-varied substrate saturating.
The mark [3] stands for this setting: other: SEQ ID NO:3, pH 7.0, non-varied substrate saturating.
[4] abbreviates: other: SEQ ID NO:9, pH 7.0, non-varied substrate saturating.
Setting [5] is: other: SEQ ID NO:6, pH 7.0, non-varied substrate saturating.
[6] abbreviates: other: SEQ ID NO:1, pH 7.0, non-varied substrate saturating.

As a reminder, the Km is the concentration of substrate that gives half-maximal velocity. For orientation: kcat means the number of substrate molecules converted per active site and unit of time at saturation. What is called kcat/Km is the second-order rate constant that governs catalysis at low substrate concentration.

“GLYAT variant SEQ ID NO:5 (derived from SEQ ID NO:1 and 2) (Bacillus licheniformis DSM 13 = ATCC 14580; A28V/D131E/E14D/E65Q/E67K/E68K/G37R/I132T/I135A/I15L/I19V/I53V/I91V/K101R/K144R/K58Q/L105M/L106I/L26I/L97I/M75V/R47G/R92K/T89S/V114A/Y130F/Y45F)”: in the data set on N[C@@H](CC(=O)O)C(=O)O (setting [1]), the Km came to 79.1 mM, the kcat came to 3.58 s⁻¹ and the kcat/Km amounted to 45.3 M⁻¹ s⁻¹. For the same substance, in the data set on O=C(O)CNCP(=O)(O)O (setting [1]), the Km worked out at 0.23 mM, the kcat was found to be 16.98 s⁻¹ and the kcat/Km was found to be 76470 M⁻¹ s⁻¹.

Consider “GLYAT variant SEQ ID NO:8 (derived from SEQ ID NO:1 and 2) (Bacillus licheniformis DSM 13 = ATCC 14580; A28V/D131E/E119K/E14D/E65Q/E67K/E68K/E83D/G37R/G38S/I132T/I135A/I15L/I53V/I91V/K101R/K144R/K58Q/L105M/L106I/L26I/L36T/L97I/M75V/N8S/R47G/R92K/T89S/V114A/Y130F/Y45F)”, for which, in the data set on N[C@@H](CC(=O)O)C(=O)O (setting [2]), the Km is listed as 60.0 mM, the kcat is 1.42 s⁻¹ and the kcat/Km came to 23.5 M⁻¹ s⁻¹. Also, in the data set with O=C(O)CNCP(=O)(O)O (setting [2]), the Km was found to be 0.39 mM, the kcat came to 11.4 s⁻¹ and the kcat/Km stood at 29650 M⁻¹ s⁻¹.

On to “GLYAT variant SEQ ID NO:3 (derived from SEQ ID NO:1 and 2) (Bacillus licheniformis DSM 13 = ATCC 14580; A28V/D131E/E119K/E14D/E65Q/E67K/E68K/E83D/G37R/I132T/I135V/I15L/I19V/I2L/I53V/I91V/K101R/K144R/K58Q/L105M/L106I/L26I/L97I/M75V/R47G/R92K/T89S/V114A/Y130F/Y45F)”, for which, in the data set with N[C@@H](CC(=O)O)C(=O)O (setting [3]), the Km worked out at 35.1 mM, the kcat stood at 2.72 s⁻¹ and the kcat/Km turned out to be 77.8 M⁻¹ s⁻¹. In the data set with O=C(O)CNCP(=O)(O)O (setting [3]), the Km turned out to be 0.60 mM, the kcat was 11.6 s⁻¹ and the kcat/Km came to 19320 M⁻¹ s⁻¹.

With “GLYAT variant SEQ ID NO:9 (derived from SEQ ID NO:1 and 2) (Bacillus licheniformis DSM 13 = ATCC 14580; A28V/D131E/E119K/E14D/E65Q/E67K/E68K/G37R/G38S/I132T/I135A/I15L/I19V/I53V/I91V/K101R/K144R/K58Q/L105M/L26I/L97I/M75V/R47G/R92K/T89S/V114A/Y130F/Y45F)”, in the data set with N[C@@H](CC(=O)O)C(=O)O (setting [4]), the Km is listed as 78.7 mM, the kcat was 2.58 s⁻¹ and the catalytic efficiency (kcat/Km) was 33.3 M⁻¹ s⁻¹. Moreover, in the data set on O=C(O)CNCP(=O)(O)O (setting [4]), the Km was 0.25 mM, the kcat was determined as 11.6 s⁻¹ and the kcat/Km is 45430 M⁻¹ s⁻¹.

“GLYAT variant SEQ ID NO:6 (derived from SEQ ID NO:1 and 2) (Bacillus licheniformis DSM 13 = ATCC 14580; A28V/D131E/E119K/E14D/E65Q/E67K/E68K/G37R/I132T/I135A/I15L/I19V/I53V/I91V/K101R/K144R/K58Q/L105M/L106I/L26I/L36T/L97I/M75A/R47G/R92K/T89S/V114A/V4I/Y130F/Y45F/Y46C)”: in the data set on N[C@@H](CC(=O)O)C(=O)O (setting [5]), the Km stood at 66.8 mM, the kcat came to 0.183 s⁻¹ and the kcat/Km is 2.67 M⁻¹ s⁻¹. Besides, in the data set with O=C(O)CNCP(=O)(O)O (setting [5]), the Km is 2.24 mM, the kcat turned out to be 11.2 s⁻¹ and the kcat/Km was determined as 5130 M⁻¹ s⁻¹.

For the substance “GLYAT (glyphosate-N-acetyltransferase), parent, SEQ ID NO:1 (Bacillus licheniformis DSM 13 = ATCC 14580; E119R/E14D/E65Q/E67K/E68K/G37R/G38S/I132T/I135V/I15L/I19V/I53V/I91V/K101R/K144R/K58Q/L105M/L106I/L145I/L26I/L36T/L97I/M75V/R47G/R92K/T33S/T89S/V114A/Y130F/Y31F/Y45F)”, in the data set on N[C@@H](CC(=O)O)C(=O)O (setting [6]), the Km is recorded as 32.9 mM, the kcat was 7.3 s⁻¹ and the kcat/Km was 229 M⁻¹ s⁻¹. Besides, in the data set on O=C(O)CNCP(=O)(O)O (setting [6]), the Km was found to be 1.36 mM, the kcat stood at 24.23 s⁻¹ and the kcat/Km is 18000 M⁻¹ s⁻¹.
